Data published in paper PMC11388340.

How the values were obtained:
[1] = target: ASF1a-C labelled with Alexa Fluor 488 (human) (UniProt Q9Y294); test: fluorescence polarisation; direct binding: protein titrated into 10 nM fluorescently labelled ASF1a-C probe; 20 mM HEPES pH 7.5, 150 mM NaCl, 0.5 mM TCEP, 0.001% Tween-20, 1 mg/ml BSA; one-site total binding model
[2] = target: HIRA-WB/UBN1-NM/H3.3/H4 complex (human | X. laevis) (UniProt P54198); test: AUC; sedimentation velocity of the HIRA-WB/UBN1-NM/H3.3/H4 SEC peak at three loading concentrations, 4 °C, 20 mM HEPES pH 6.95, 500 mM NaCl, 0.5 mM TCEP; global fit in Sedphat to monomer-dimer self-association: 2:2:2:2 assembly to 1:1:1:1 assemblies
[3] = target: H3.3/H4 heterodimer (human | X. laevis) (UniProt P84243); test: AUC; sedimentation equilibrium of H3.3/H4 alone, 4 °C, three loading concentrations, 15,000, 25,000 and 30,000 rpm, 20 mM HEPES pH 7.5, 100 mM NaCl, 100 mM KCl, 2 mM MgCl2, 1 mM EDTA, 0.05% Brij-35; monomer-dimer model: (H3.3/H4)2 tetramer to H3.3/H4 heterodimers
[4] = target: HIRA-WB/UBN1-NM complex (human) (UniProt P54198); test: AUC; sedimentation velocity of the HIRA-WB/UBN1-NM/H3.3/H4 SEC peak at three loading concentrations, 4 °C, 20 mM HEPES pH 6.95, 500 mM NaCl, 0.5 mM TCEP; global fit in Sedphat to monomer-dimer self-association: 2:2:2:2 assembly to 1:1:1:1 assemblies
[5] = target: ASF1a-C labelled with fluorescein-5-maleimide (human) (UniProt Q9Y294); test: fluorescence polarisation; direct binding: protein titrated into 10 nM fluorescently labelled ASF1a-C probe; 20 mM HEPES pH 7.5, 150 mM NaCl, 0.5 mM TCEP, 0.001% Tween-20, 1 mg/ml BSA; one-site total binding model
H3/H4 (Homo sapiens) = H3/H4 (Homo sapiens) (UniProt P84243); conditions: cited from earlier work
H3.3/H4 (Homo sapiens) = H3.3/H4 (Homo sapiens) (UniProt P84243); conditions: cited from earlier work
[6] = target: H3.3/H4 (Homo sapiens (H3.3); Xenopus laevis (H4)) (UniProt P84243+P62799); test: competition; conditions: 20 mM HEPES pH 7.5, 150 mM NaCl, 0.5 mM TCEP, 0.001% Tween-20, 1 mg/ml BSA; 10 nM probe; temperature not stated

Chain of ASF1a-C labelled with fluorescein-5-maleimide (human) (Q9Y294 1-156): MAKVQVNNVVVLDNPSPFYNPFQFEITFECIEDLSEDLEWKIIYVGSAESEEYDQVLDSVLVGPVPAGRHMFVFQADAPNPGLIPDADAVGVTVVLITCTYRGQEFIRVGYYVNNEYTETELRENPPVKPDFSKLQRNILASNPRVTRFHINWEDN
Chain of ASF1a-C labelled with Alexa Fluor 488 (human) (Q9Y294 1-156): as above
Chain of ASF1a (Q9Y294 whole entry): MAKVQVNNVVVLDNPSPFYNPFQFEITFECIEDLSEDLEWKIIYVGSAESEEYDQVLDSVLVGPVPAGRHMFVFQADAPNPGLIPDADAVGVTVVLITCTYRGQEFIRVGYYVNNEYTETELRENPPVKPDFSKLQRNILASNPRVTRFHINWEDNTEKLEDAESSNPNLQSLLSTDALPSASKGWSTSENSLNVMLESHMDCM

Substance: HIRA-WB/UBN1-NM/H3.3/H4 complex (from UniProt P54198 1-473; Q9NPG3 1-584; P84243 1-136; P62799 1-103) (complex; other documents disagree on this pair)
- Kd [1]: 1 µM

Substance: HIRA-WB/UBN1-NM/H3.3/H4 complex (from UniProt P54198 1-473; Q9NPG3 1-584; P84243 1-136; P62799 1-103)
- Kd [2]: 6 µM
- stoichiometry N [2]: 2

Substance: H3.3/H4 heterodimer (from UniProt P84243 1-136; P62799 1-103) (complex)
- Kd [3]: 6 µM
- stoichiometry N [3]: 2
- stoichiometry N [4]: 1

Substance: H3.3/H4 heterodimer (from UniProt P84243 1-136; P62799 1-103) (complex; other documents disagree on this pair)
- Kd [5]: 0.28 µM

Substance: ASF1a (from UniProt Q9Y294)
- Kd (H3/H4 (Homo sapiens)): 0.0025 µM

Substance: UBN1 (from UniProt Q9NPG3)
- Kd (H3.3/H4 (Homo sapiens)): 7 µM

Substance: 60 bp dsDNA competitor
- Ki [6]: 0.28 µM
